# Source: patent publication US20100240578A1 (priority 2006, published 2010)
# Like-named read-outs stand apart in the source and are kept apart here.
# B1: Cyanovirin-N (protein, listed as Nostoc ellipsosporum)
# chain: LGKFSQTCYNSAIQGSVLTSTCERTNGGYNTSSIDLNSVIENVDGSLKWQPSNFIETCRNTQLAGSSELAAECKTRAQQFVSTKINLDDHIANIDGTLKYE
# Assays:
# Type in all cases: cell-based, avian influenza A (H5N1)
# [1] = system: bird H5N1 influenza virus strain Duck/MN/1525/81
# [2] = system: bird H5N1 influenza virus strain Duck/MN/1525/81; remark: listed apart in the source
# [3] = system: bird H5N1 influenza virus strain Gull/PA/4175/83
# [4] = system: bird H5N1 influenza virus strain Gull/PA/4175/83; remark: listed apart in the source
# [5] = system: humanized H5N1 influenza virus strain Hong Kong/491/1997
# [6] = system: humanized H5N1 influenza virus strain Hong Kong/491/1997; remark: listed apart in the source
# [7] = system: humanized H5N1 influenza virus strain Hong Kong/213/2003
# [8] = system: humanized H5N1 influenza virus strain Hong Kong/213/2003; remark: listed apart in the source
# [9] = system: humanized H5N1 influenza virus strain Vietnam/1203/2004H
# [10] = system: humanized H5N1 influenza virus strain Vietnam/1203/2004H; remark: listed apart in the source
# [11] = system: humanized H5N1 influenza virus strain Vietnam/1203/2004H; remark: listed apart in the source
# [12] = system: all tested strains of H5N1
molecule,measurement,setting,value
B1,EC90,[1],0.7 µg/mL
same,EC50,[2],0.5 µg/mL
same,IC50,[2],2 µg/mL
same,EC90,[3],0.1 µg/mL
same,EC50,[4],0.1 µg/mL
same,IC50,[4],3 µg/mL
same,activity against the strain (in words),[4],moderately active
same,EC90,[5],0.1 µg/mL
same,EC50,[6],<0.0032 µg/mL
same,IC50,[6],3 µg/mL
same,activity against the strain (in words),[6],moderately active
same,IC50,[7],>1 µg/mL
same,IC50,[8],>1 µg/mL
same,activity against the strain (in words),[8],highly active
same,EC90,[9],0.2 µg/mL
same,activity against the strain (in words),[10],moderately active
same,EC50,[11],0.03 µg/mL
same,IC50,[11],>1 µg/mL
same,activity against all tested strains of H5N1 (in words),[12],active
